Literature values as cited in PMC9811451.

Biological target: ACE2 (Homo sapiens) (UniProt Q9BYF1)
Sequence (Q9BYF1 18-740): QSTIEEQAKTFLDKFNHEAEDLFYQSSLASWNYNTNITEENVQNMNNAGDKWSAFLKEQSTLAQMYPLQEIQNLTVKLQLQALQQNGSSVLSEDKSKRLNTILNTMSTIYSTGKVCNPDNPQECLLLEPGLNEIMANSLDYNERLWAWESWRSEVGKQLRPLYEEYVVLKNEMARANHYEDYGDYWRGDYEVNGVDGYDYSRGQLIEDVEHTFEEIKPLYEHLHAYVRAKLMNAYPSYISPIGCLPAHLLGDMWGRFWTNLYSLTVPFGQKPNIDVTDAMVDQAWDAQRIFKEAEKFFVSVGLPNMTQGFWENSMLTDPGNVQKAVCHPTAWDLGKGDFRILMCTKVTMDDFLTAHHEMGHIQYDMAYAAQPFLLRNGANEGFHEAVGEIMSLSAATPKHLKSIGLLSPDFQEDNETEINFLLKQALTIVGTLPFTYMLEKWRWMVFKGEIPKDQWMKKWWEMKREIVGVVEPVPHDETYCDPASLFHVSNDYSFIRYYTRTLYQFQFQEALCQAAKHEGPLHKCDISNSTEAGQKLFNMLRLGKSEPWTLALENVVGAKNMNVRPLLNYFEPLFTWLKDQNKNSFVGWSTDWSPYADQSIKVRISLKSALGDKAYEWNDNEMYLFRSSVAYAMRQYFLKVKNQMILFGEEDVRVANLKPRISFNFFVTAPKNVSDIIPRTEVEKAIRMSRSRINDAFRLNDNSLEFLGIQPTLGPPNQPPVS

Substance: Spike (from UniProt P0DTC2)
- Kd: 4 nM
